# Paper PMC3763537
# B1: NprX8c SKPDIVGQ (peptide)
# peptide: SKPDIVGQ
# B2: NprX7-II (SKPDTYG) (peptide)
# peptide: SKPDTYG
# B3: NprX8n octapeptide SSKPDIVG (peptide)
# peptide: SSKPDIVG
# B4: NprX7 peptide (WKPDTLG) characteristic of groups V to VII (peptide)
# peptide: WKPDTLG
# B5: NprX7-IV (SRPDVLT) (peptide)
# peptide: SRPDVLT
# B6: NprX9n … (peptide)
# peptide: YSSKPDIVG
# B7: NprX7-III (SNPDIYG) (peptide)
# peptide: SNPDIYG
# How the values were obtained:
# [1] = biological target: full-length NprR (B. thuringiensis strain 407); assay: dynamic light scattering
# [2] = biological target: full-length NprR (B. thuringiensis strain 407); assay: SEC
# [3] = biological target: full-length NprR (B. thuringiensis strain 407); assay: dynamic light scattering; remark: listed apart in the source
# [4] = biological target: full-length NprR (B. thuringiensis strain 407); assay: SEC-MALS
# [5] = biological target: NprR(ΔHTH) (B. thuringiensis strain 407); assay: SEC
# [6] = biological target: NprR(ΔHTH) (B. thuringiensis strain 407); assay: dynamic light scattering
# [7] = biological target: NprR(ΔHTH) (B. thuringiensis strain 407); assay: SEC; remark: listed apart in the source
# [8] = biological target: NprR(ΔHTH) (B. thuringiensis strain 407); assay: dynamic light scattering; remark: listed apart in the source
# [9] = biological target: NprR(ΔHTH) (B. thuringiensis strain 407); assay: crystal structure
# [10] = biological target: NprR(ΔHTH) (B. thuringiensis strain 407); assay: SEC-MALS
# [11] = biological target: NprR(ΔHTH)(Y223A/F225A) (B. thuringiensis strain 407); assay: SEC
# [12] = biological target: NprR(ΔHTH) (B. thuringiensis strain 407); assay: ITC
# [13] = biological target: NprR(ΔHTH)(N407A/Y410A) (B. thuringiensis strain 407); assay: ITC
# [14] = biological target: NprR(ΔHTH)(R126A) (B. thuringiensis strain 407); assay: ITC
# [15] = biological target: NprR(ΔHTH)(Y223A/F225A) (B. thuringiensis strain 407); assay: ITC
molecule,measurement,setting,value
full-length NprR (natural protein),stoichiometry N,[1],2
same,stoichiometry N,[2],2
same,stoichiometry N,[3],4
same,stoichiometry N,[4],2
NprR(ΔHTH) (domain or fragment),stoichiometry N,[5],2
same,stoichiometry N,[6],2
same,stoichiometry N,[7],2
same,stoichiometry N,[8],4
same,stoichiometry N,[9],4
same,stoichiometry N,[10],2
NprR(ΔHTH)(Y223A/F225A) (domain or fragment),stoichiometry N,[11],2
NprX7 heptapeptide SKPDIVG,Kd,[12],100 nM
same,Kd,[13],100 nM
same,Kd,[14],640 nM
same,Kd,[15],100 nM
NprX7 variant SKPDIVG-CO-NH (peptide),Kd,[12],5500 nM
B1,Kd,[12],1000 nM
B2,Kd,[12],400 nM
B3,Kd,[12],30 nM
B4,Kd,[12],3000 nM
B5,Kd,[12],6000 nM
B6,Kd,[12],220 nM
B7,Kd,[12],80 nM
